Measurements from PMC8038994, “RNA and DNA G-quadruplexes bind to human dicer and inhibit its activity”.

Columns and labels:
hDicer PPC cassette = molecular target: T1, hDicer PPC cassette (Homo sapiens, UniProt Q9UPY3 753-1068); experiment: EMSA; EMSA: 20 mM Tris-HCl pH 7.4, 100 mM KCl, 30 min on ice; 5% or 10% native PAGE at 4 C in 1x TBE; G-rich oligos folded in 50 mM KCl; details: protein: recombinant, tags: N-terminal 6xHis (pMCSG7), label: 5'-32P
T1 sequence: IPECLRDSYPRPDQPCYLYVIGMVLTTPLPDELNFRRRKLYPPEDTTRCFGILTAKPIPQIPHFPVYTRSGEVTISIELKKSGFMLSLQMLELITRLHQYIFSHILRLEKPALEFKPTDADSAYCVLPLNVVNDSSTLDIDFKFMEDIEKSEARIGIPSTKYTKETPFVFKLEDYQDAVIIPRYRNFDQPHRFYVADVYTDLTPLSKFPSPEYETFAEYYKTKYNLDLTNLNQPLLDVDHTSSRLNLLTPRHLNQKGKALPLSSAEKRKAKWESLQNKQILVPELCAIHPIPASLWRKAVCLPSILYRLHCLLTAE

hDicer [1] = molecular target: T2, hDicer (Homo sapiens, UniProt Q9UPY3 1-1922); experiment: EMSA; 250 nM hDicer; EMSA: 20 mM Tris-HCl pH 7.4, 100 mM KCl, 30 min on ice; 5% or 10% native PAGE at 4 C in 1x TBE; G-rich oligos folded in 50 mM KCl; details: protein: recombinant; label: 5'-32P; G4 dimer of bimolecular G-quadruplexes (PDB 2M18)
hDicer [2] = molecular target: T2, hDicer; experiment: EMSA; 100, 250 nM hDicer; EMSA: 20 mM Tris-HCl pH 7.4, 100 mM KCl, 30 min on ice; 5% or 10% native PAGE at 4 C in 1x TBE; G-rich oligos folded in 50 mM KCl; details: protein: recombinant; label: 5'-32P; G4

T2 sequence (Q9UPY3 whole entry): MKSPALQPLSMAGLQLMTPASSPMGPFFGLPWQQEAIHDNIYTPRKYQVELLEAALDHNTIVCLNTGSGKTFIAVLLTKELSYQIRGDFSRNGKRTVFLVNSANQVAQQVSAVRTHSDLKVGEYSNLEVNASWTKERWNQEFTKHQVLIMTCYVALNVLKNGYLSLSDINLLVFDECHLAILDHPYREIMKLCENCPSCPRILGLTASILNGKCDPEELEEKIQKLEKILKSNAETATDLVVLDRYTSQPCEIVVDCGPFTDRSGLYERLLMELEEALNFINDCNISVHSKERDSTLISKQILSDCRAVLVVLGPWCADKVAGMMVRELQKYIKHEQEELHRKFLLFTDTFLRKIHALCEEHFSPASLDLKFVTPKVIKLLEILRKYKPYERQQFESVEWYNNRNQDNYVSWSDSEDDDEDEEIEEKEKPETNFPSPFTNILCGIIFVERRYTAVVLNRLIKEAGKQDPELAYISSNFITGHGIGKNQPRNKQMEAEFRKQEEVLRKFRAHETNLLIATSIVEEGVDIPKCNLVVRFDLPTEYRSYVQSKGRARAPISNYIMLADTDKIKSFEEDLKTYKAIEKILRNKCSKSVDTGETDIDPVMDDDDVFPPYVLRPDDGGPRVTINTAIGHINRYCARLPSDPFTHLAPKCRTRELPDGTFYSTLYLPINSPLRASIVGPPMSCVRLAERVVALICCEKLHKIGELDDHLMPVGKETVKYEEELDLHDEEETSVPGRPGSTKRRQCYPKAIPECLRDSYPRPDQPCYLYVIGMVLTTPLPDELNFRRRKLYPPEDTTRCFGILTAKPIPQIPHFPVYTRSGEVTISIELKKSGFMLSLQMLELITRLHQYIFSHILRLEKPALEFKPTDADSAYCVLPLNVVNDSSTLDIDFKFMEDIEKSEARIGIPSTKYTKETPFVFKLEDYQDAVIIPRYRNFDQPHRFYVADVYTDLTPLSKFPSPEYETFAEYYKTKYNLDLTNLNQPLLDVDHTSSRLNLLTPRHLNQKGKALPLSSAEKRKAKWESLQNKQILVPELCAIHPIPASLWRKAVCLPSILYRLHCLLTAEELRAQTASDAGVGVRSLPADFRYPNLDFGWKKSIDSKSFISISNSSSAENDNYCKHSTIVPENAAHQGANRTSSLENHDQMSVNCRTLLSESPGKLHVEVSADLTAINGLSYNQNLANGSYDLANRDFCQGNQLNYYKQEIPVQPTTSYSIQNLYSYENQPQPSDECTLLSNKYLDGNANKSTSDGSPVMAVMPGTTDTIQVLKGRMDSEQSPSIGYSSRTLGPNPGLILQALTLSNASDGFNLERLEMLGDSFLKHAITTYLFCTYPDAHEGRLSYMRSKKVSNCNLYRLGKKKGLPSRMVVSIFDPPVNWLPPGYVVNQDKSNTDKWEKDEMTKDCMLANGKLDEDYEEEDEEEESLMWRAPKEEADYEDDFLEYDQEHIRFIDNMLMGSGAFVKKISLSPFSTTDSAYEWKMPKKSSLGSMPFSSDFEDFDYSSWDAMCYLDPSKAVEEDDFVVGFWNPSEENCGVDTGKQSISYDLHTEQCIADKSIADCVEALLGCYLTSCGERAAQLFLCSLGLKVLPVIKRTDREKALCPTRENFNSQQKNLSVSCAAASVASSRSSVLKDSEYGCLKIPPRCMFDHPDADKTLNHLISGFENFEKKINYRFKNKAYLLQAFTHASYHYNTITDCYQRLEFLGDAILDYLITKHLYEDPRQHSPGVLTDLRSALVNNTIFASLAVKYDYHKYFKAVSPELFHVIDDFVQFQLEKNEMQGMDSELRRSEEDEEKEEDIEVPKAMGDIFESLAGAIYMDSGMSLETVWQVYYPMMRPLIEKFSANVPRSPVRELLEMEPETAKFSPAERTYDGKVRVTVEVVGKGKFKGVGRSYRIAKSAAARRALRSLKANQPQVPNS

B1: pre-mir-21 (structured_RNA)
RNA: AGCUUAUCAGACUGAUGUUGACUGUUGAAUCUCAUGGCAACACCAGUCGAUGGGCUGU
Kd (hDicer PPC cassette; hairpin): ~205 nM

B2: LIN21 (ssRNA)
RNA: UCGAAGUAUUCCGCGUACGUG
Kd (hDicer PPC cassette): ~46 nM

B3: TER10 (structured_RNA)
RNA: GGGUUAGGGU
binding result (hDicer [1]): binds

B4: QU14 (structured_RNA)
RNA: GGAGGUUUUGGAGG
binding result (hDicer [2]): binds

B5: G4U4G4 (structured_RNA)
RNA: GGGGUUUUGGGG
Kd (hDicer PPC cassette; G4): ~10 nM

B6: G4T4G4 (structured_DNA)
DNA: GGGGTTTTGGGG
Kd (hDicer PPC cassette; G4 bimolecular, 2 strand copies (PDB 1JPQ)): ~369 nM
